± gives the standard deviation of the averaged measurements.
What follows are sequences tested on ATP (assay: switch fluorescence ratio, 500 uM ATP over buffer (Cy3 cluster intensity, sum of 5 cycles each) (fold (ratio)); higher = stronger signal-on switching upon ATP binding; sequences stand for … in TCGTCGGCAGCGTCAGATGTGTATAAGAGACAGTTTTTTTTTTTTTTTTTTTTTTTTT…TC). Settings: aptamer strand: ATP DNA aptamer (quencher-CACCTGGGGGAGTATTGCGGAGGAAGG + anchor), 100 nM annealed; ATP concentration: 500 uM.
Method in brief: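 Switching-strand clusters labelled with Cy3 on a modified Illumina MiSeq flow-cell were annealed to 100 nM quencher-labelled ATP aptamer, imaged in selection buffer, and re-imaged after 15 min with 500 uM ATP at 22 °C. This was done over five cycles with NaOH stripping and re-annealing in between. The fluorescence ratio is summed target-cycle over summed buffer-cycle Cy3 intensity per cluster, averaged per switch-domain sequence, excluding clusters outside 100-1000 RFU.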
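Note: ATP exposure 15 min at 22 °C before imaging.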

In order of falling switch fluorescence ratio:
1. CGGAGGGTAC  1.61 ± 0.08
2. TTTCCTGGGC  1.37 ± 0.61
3. TTTTTAGGTG  1.27 ± 0.2
4. CCAAAGTACG  1.25 ± 0.018
5. CATTGACCTT  1.23 ± 0.067
6. CCACGGCAGG  1.229 ± 0.011
7. TTGTATGTAC  1.22 ± 0.13
8. GCCAGAGGGG  1.19 ± 0.34
9. ACGGAAATGT  1.18 ± 0.1
10. CTCTTTGCC  1.17 ± 0.27
11. CCGGCTTTCC  1.15 ± 0.027
12. ACGTAATTAA  1.13 ± 0.026
13. TTGGGACTGG  1.12 ± 0.14
14. GATTTAGGTG  1.12 ± 0.0065
15. CGCTAGGGTG  1.115 ± 0.0032
16. CCAGGGGGAC  1.11 ± 0.018
17. TTTAATTCGC  1.1 ± 0.056
18. GGTACGGCAA  1.09 ± 0.019
19. TACAACTTTC  1.08 ± 0.051
20. CGCATCGTAA  1.074 ± 0.0044
21. AATGTGCCGT  1.07 ± 0.04
22. TAGTGGGCGG  1.07 ± 0.046
23. TCTATACCAC  1.06 ± 0.014
24. GAGAAAGGGG  1.06 ± 0.14
25. ACATATATGA  1.06 ± 0.031
26. GAATATACTG  1.05 ± 0.029
27. TGGGCAAGGT  1.05 ± 0.038
28. TAACTTGCTC  1.05 ± 0.054
29. GATTACGGGA  1.052 ± 0.0098
30. TTCATGTGTT  1.04 ± 0.037
31. TACTTTAGGG  1.04 ± 0.024
32. TTTGTTACGT  1.04 ± 0.024
33. GTTAAAAATG  1.04 ± 0.051
34. ATGGAAAATG  1.04 ± 0.037
35. GAGGGCTACT  1.04 ± 0.041
36. ACAACGGTCT  1.042 ± 0.0035
37. ATACCGAGGA  1.04 ± 0.051
38. TTAAAGTTGT  1.03 ± 0.07
39. CAGGCCATGG  1.03 ± 0.094
40. CAGGATTCTG  1.03 ± 0.059
41. TAAGGGGTTT  1.03 ± 0.058
42. CGATGTGCGG  1.03 ± 0.062
43. TCAATTAACT  1.03 ± 0.013
44. CCATAAGGGA  1.028 ± 0.0055
45. AGGATACATT  1.02 ± 0.02
46. TAGTCGTCGT  1.02 ± 0.0021
47. TATGTTAAC  1.02 ± 0.012
48. ACATTAGTAG  1.02 ± 0.033
49. CAGTGACTTT  1.022 ± 0.0014
50. AGTTTGTCCC  1.02 ± 0.0057
51. CTGCGGGGAT  1.02 ± 0.027
52. AAGAGGTAGT  1.02 ± 0.015
53. ACAGGGGTGG  1.02 ± 0.021
54. TACTTAGGAT  1.02 ± 0.044
55. TTTCGGTATT  1.02 ± 0.02
56. TTAGTTTAAT  1.02 ± 0.024
57. TTGGGATGGT  1.02 ± 0.029
58. ACAGAGGGAG  1.02 ± 0.011
59. TAAGTTAGTC  1.02 ± 0.012
60. ATGGTGCGGG  1.02 ± 0.033
61. TAAGGGCAGA  1.02 ± 0.045
62. GGGGTGTAAT  1.01 ± 0.021
63. ATTTTCCAGT  1.01 ± 0.011
64. AGAACGGCCT  1.01 ± 0.019
65. ACATAAGTGG  1.01 ± 0.011
66. AAGGCGGTCA  1.01 ± 0.04
67. ATTGTTGATC  1.01 ± 0.029
68. TAGAAAGGGC  1.01 ± 0.08
69. ACAGGATCCG  1.01 ± 0.00021
70. TTTGAGTGAT  1.01 ± 0.057
71. TTGGAGGGTG  1.005 ± 0.01
72. TTTGGACTAT  1.012 ± 0.0038
73. TTAATTTTA  1.014 ± 0.0011
74. TTTTGTGGGA  1.01 ± 0.031
75. AAGTTCAGTG  1.014 ± 0.0068
76. CGGGAATTAG  1.01 ± 0.035
77. CGGCCTGTTG  1.01 ± 0.026
78. CAGGGAAGGT  1.01 ± 0.033
79. GTATTGGGGG  1.01 ± 0.043
80. AATTTACTGT  1.01 ± 0.023
81. CGATTATCTT  1.01 ± 0.011
82. TAAGGTTTTG  1.01 ± 0.022
83. GTTCTTGGTG  1.01 ± 0.0089
84. TTCCGAAAAT  1.01 ± 0.046
85. TGTTGCGGGT  1.01 ± 0.042
86. TGATTGTTTG  1.01 ± 0.034
87. AGTATATGGA  1.01 ± 0.013
88. TTGTTTAAAA  1.01 ± 0.049
89. TCTAGAGGGT  1.01 ± 0.028
90. TTTATCCGGT  1.01 ± 0.042
91. GCTTTATTAA  1 ± 0.017
92. GGGAGGGCAT  1 ± 0.027
93. CGTGGTGGAG  1 ± 0.045
94. AGGGCTAGTA  1 ± 0.034
95. TTTAAATTG  1 ± 0.05
96. TTAATTTTGT  1 ± 0.012
97. GGGGGCTTGT  1 ± 0.019
98. TGGTAGAGTT  1 ± 0.016
99. ATCTGTCCAG  1 ± 0.071
100. ACGGTTTTTC  1.0014 ± 0.0005
101. TTGTATTCGG  1 ± 0.03
102. GTGGGGGGCG  1 ± 0.042
103. TGCGGGAAGT  1 ± 0.014
104. TAGGATTGTG  0.9991 ± 0.0081
105. TGGGGGGGCG  0.998 ± 0.04
106. CATTTAATGG  0.997 ± 0.028
107. GGGGGTTGTT  0.997 ± 0.025
108. CTTAGGGTT  0.997 ± 0.044
109. TTAAATAGGT  0.9956 ± 0.0088
110. TTTAAGGGGA  0.996 ± 0.013
111. TATGGTTTTT  0.996 ± 0.015
112. GATTAGAAGT  0.996 ± 0.016
113. TAAGGCGGAG  0.9951 ± 0.0032
114. GGTGTTCACT  0.995 ± 0.019
115. AATTAGTGGG  0.995 ± 0.025
116. CGATAATTTG  0.994 ± 0.015
117. TTTGGTTCAG  0.994 ± 0.018
118. GGTATATGTC  0.994 ± 0.05
119. TTTTGGACAT  0.993 ± 0.029
120. GGTTGTGAGT  0.993 ± 0.02
121. CAGCTGGATG  0.993 ± 0.029
122. TGTTTTTTGG  0.991 ± 0.033
123. TTTCTTTTTG  0.99 ± 0.034
124. CTTATGAGGG  0.99 ± 0.025
125. ATGATTGGCA  0.99 ± 0.026
126. GACCGATTTT  0.989 ± 0.015
127. ACAGTTTTTT  0.98861 ± 1.6e-05
128. TATGGCGGTG  0.989 ± 0.021
129. GTGGAGACGG  0.988 ± 0.034
130. CGTTGGGAGT  0.988 ± 0.037
131. AGAAGAAGGC  0.988 ± 0.022
132. GTTGTTTTTT  0.988 ± 0.036
133. GGGGGCAATT  0.987 ± 0.021
134. TATTTTAAAA  0.986 ± 0.022
135. ATAGTGTTGG  0.986 ± 0.029
136. ATTGAGGGTC  0.986 ± 0.018
137. CACGTGCCAG  0.985 ± 0.043
138. TTGCAGATTT  0.985 ± 0.028
139. TTGGGATCCG  0.985 ± 0.016
140. ATTGGAAAAG  0.985 ± 0.035
141. GCTAACAGAG  0.984 ± 0.035
142. ATTTTTGATT  0.984 ± 0.018
143. TGAGATTTTG  0.983 ± 0.045
144. TTTAAGTTGG  0.983 ± 0.013
145. TTTACATTAT  0.981 ± 0.058
146. TGGTGGTCGC  0.9778 ± 0.0044
147. TTGTGGCCGG  0.978 ± 0.045
148. TTTGTTTCTT  0.977 ± 0.032
149. CCGATTTTTA  0.977 ± 0.053
150. GGAATCCATG  0.977 ± 0.0013
151. ATAGATTCTC  0.977 ± 0.025
152. GGGCACAGCA  0.9752 ± 0.0056
153. TGTGTGGGGT  0.975 ± 0.021
154. TAAGAGTGCA  0.973 ± 0.027
155. ATGAAGGGGT  0.959 ± 0.033
156. TGAGCGAGTG  0.957 ± 0.028
157. TCGGGGAGGA  0.956 ± 0.026

Source: the supplement of paper PMC10126150
